T1: A. trivirgatus 2B4-Fc fusion protein (Aotus trivirgatus)
T1 chain: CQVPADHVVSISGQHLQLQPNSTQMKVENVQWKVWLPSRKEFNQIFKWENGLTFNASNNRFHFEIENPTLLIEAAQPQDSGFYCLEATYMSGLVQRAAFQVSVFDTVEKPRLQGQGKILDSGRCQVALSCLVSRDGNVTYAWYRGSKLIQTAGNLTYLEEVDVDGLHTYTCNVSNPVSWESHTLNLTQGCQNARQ

T2: human 2B4-Fc fusion protein (human, UniProt Q9BZW8 22-229)
T2 chain: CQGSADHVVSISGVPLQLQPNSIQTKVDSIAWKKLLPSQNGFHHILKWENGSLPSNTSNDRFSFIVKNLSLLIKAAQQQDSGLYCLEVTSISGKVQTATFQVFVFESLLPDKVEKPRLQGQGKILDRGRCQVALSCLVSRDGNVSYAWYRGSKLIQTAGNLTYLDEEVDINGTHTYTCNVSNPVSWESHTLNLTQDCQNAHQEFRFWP

B1: A. trivirgatus CD48-Fc fusion protein (Fc fusion)
chain: TSIQGNSVDVINAISGGNVTLNISESLPENVREITWFCTYHQKIADWDVKRLKYFDNKFKGRVRLDYQSGALYISKIQKEDANIYIMRVLKETMYEQEWKIRLQVFDPVPKPDIKIEKTAKVEDDCYLKLSCVIPDESVNYTWYGDKEPFPKEFQSGVLETTLKSQDYSRCYTCQVSNPVSSKNDTVCFS
modifications: biotin (biotinylated host CD48-Fc in the blocking ELISA)
B2: human CD48-Fc fusion protein (Fc fusion)
chain: QGHLVHMTVVSGSNVTLNISESLPENYKQLTWFYTFDQKIVEWDSRKSKYFESKFKGRVRLDPQSGALYISKVQKEDNSTYIMRVLKKTGNEQEWKIKLQVLDPVPKPVIKIEKIEDMDDNCYLKLSCVIPGESVNYTWYGDKRPFPKELQNSVLETTLMPHNYSRCYTCQVSNSVSSKNGTVCLSPPCTLARS
modifications: biotin (biotinylated hCD48-Fc in the blocking assays)

Columns and labels:
Assay in all cases: SPR
[1] = biological target: T1, A. trivirgatus 2B4-Fc fusion protein
[2] = biological target: T2, human 2B4-Fc fusion protein
[3] = biological target: T2, human 2B4-Fc fusion protein

Binder | koff [1] [s⁻¹] | koff [2] [s⁻¹] | Kd [3] [µM]
B1 | 0.000489 |  | 
B2 |  | 0.0224 | 0.023
